A protein production outcome set (Wang et al. 2014)

Test: label from the status in PepcDB records
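Further: failed if final PepcDB status was selected cloned or expressed and not failed if soluble or beyond.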

MSATTTNLKEAIVNRRSIRKVTKNDAITKERIEEVLKTALHAPTSFNMQSGRMVVLMDGEHEKFWDIVKETLRARVPAENFEATVERLKGFHAGVGTVLFFEDQATVEKMQENAPLYKDQFPFWSHQGNAMLQHTVWMLLSAEGIGASLQHYNPIVDAEVKETWNIPAEWSLVGQMPFGEPNEQPAERTFLPTEDVVKFY
protein production: not failed

MKNYQKMSVAQDARVELHDSLALTGAEVSINHLPAGAGVPFVHSHKQNEEIYGILSGKGFITIDGEKIELQAGDWLRIAPDGKRQISAASDSPIGFLCIQVKAGSLEGYTMTDGVVQLEHHHHHH
protein production: not failed

FEKVYHLKLSIKGITPQIWRRIQVPENYTFLDLHKAIQAVMDWEDYHLHEFEMVNPKTGMLDKIGAEGDDFDAFGGPLVSEKKAKLSDYFTLENKEALYTYDFGDNWQVKVRLEKILPRKEGVEYPICTAGKRAAVPEDSGGVWGYEEMLEVLKDSEHEEYEDTVLWLGDDFDPEYFDPKDVS
protein production: failed

MTERKVSWLELFFDLIFVTAVASTTHLLLSVDNHPDKTAAYFGEYLLMVTPMFWAWVGQTMFFNRFGEKIKWPELYMLSQMFFLILMTASFDLTFSNTYYTFLIGYLGIRFITVIQYFVISKQLTGNAQKVALLLGSVFLLGVLTTATSVFFEGFARYLVMYLGIAVDIILPLFLAKTLRKVPVDFPHLAERFGLFVIITFGESIVAITTILVGHTLDLYTICYTLLGFLIICTLWASYFYSFEKIVDHHKVTHGQFLIYGHFFIIVSVMLLAVNLHLLFEGHLQRDVLLLLLFSSVAVFFISKQFVFAAHKKAEVSFSFWKDALLLLLLVGLFFVNLYINLPLFVSFVSIWICALVDLGLQFGTSRSVRM
protein production: failed

MRMLAHAIKVWNENTGALSHLEIEPLPHQIHLVHHILASGNFNWLIADDVGLGKTIETGMLLHALQQRDLAKRILLITPAGLTKQWQEELYHKFKLEDFEIYGEDFFINEPRQWKMHDCVIGSMDRLKQVDHLESLLQAEPWDLVIFDEGHRLSRRQYGQKLDSSERYDLAKNLRSQTKHMLLLSATPHQGMQDKFVALLELLRPERR
protein production: failed

MTDFQKQFFARLNIEEKQKVSFEDLSNIMYAMAQTVPFENLNVLEKNFKEISQENLKEKILVNNRGGLCYELNPTMYYFLKDAGFDVYLVSGTVYNAANSIWAVDSGHIATILKHHNELYLIEVGFGSYLPLAPVPFSGEVVQSVTGDYRIRKEMTEKGNYMLEMRKNDEFLDQSSTDDWTLGYAFYIEEVDEKKQMQHKKLLLNTMAHHLTKYLLL
protein production: failed

MVGSVYTLFLYFSIILGVIVGVRTRSFHSSLAVLVFSSTFVAGIKYNNSYIAIISWLALSTLSSYLFHLNVIIKSRKDESVSNVLMGYLLGFFILLTLKLHGAGWILSILASYWVFYILLMFDYSKNRRAYYLLKTLWIIFSWGALIEAFGLQKELLPFLVVYTLIFILWFKRQEYSPT
protein production: failed

SFPNRRIVTTVFNDEGIQFLVTRYIKALNPPQQLLDIFLHNSNATFDLIARFVSLIPFVPNTPDENDGSDIWMTSEHCISLAIGNKEEHAILLCNFFLYFGKKALVLLGTSVLEGHVAYVVTQETNEYLLWNPSTGQCYKQFDPFCPLKSVDCLFDDRNVWFNIQQNNTPMAVFFDYSKESFWKQLLPKNVQGTKIQSIQVTGFPIQMPYIDVQSIIDAVYQTGIHSAEFPQTEFALAVYIHPYPNNILSVWVYLASLVQHQ
protein production: not failed

MTQLQQSVIESQPGKLSDYLGHTRRNRFSIRLFSGLIGFILVLAVMATGYWLVFASDRYVSEASVIIRKTDSVTAPSFDLSMLIAGVAGVNRADQLLLREYLLSVDMLKKLDTELDLHAHYSDEHYDLLSRMWLKDMEWFHRHYLSRVSIEYDDYAGVLRINAQAYDPEIARAISNLLVREGERYMNQISHELAETQVSFLTTQVNLAQLRFQQVRQKLLAYQNKKGLLSPQATVESLNTLIAKLEEQRAQLKTQLASLPRTLDRNHPNLVMLRQSLAAIDRQITDEKAKLANPTGKTLNITMEEFQRLEMEVTFAQELYKAALTALEKGRIDATRMLDKVSVLQAPTLPEYPMEPRRIYNTLVTLLFALMLAGILKLLEGIILDHVD
protein production: failed

SIQGKVALIAGGAKNLGGLIARDLAAHGARAIAIHYNSPASKADADATVAALQAAGAQAVALQGDLTTAAAVEKLYADALAAVGRPDIAINTVGKVLKKPFSEISEAEYDEMAAVNAKSAFFFLKEAGRHVNDHGKIVTLVTSLLGAFTPFYSAYAGTKAPVEHYTRAAAKEFGARGISVTAVGPGPMDTPFFYGQESPEAVAYHQSAAALSPHSPTGLTHIEDVVPFIRHLVSDGWWITGQTLLINGGY
protein production: failed

MIYRILIVISIFMISFSGFGQTDYFKLGKEYYNNGEYEKAAATYSEVIKKEENLPKVYETYLSTLYKLKNYTEAEKIIKKMVKVGSPENYTYRIDYALFYKQQNLTDKAEKEFSAFVSDIQKNSTAVDISGAYLQKLGEYTWAKQLYLQARKNFDRYAYCFELSSIYNRLGQTENMFDELLNYLSVNPASLEEVQNTFQNELDTDEKFALFETKVYDRINKDPNDIVYNQLLLWLNLQRKNFTKAFIQAKAIDKRNRQTGTTVLEVGNIALENKDYDAAGACFQYVSDNFKESFNYSIARRLLIQTREEQIKNTFPVDKQKIVGLISDYNQLLKENGRTAYTLESLRNMALLNAFYLDKRDTAVVILKSLIENPYTDNRLRGKAKIDLGDIYLLTGEPWESTLLYSQVEKDFKEDQLGHEAKLRNAELYYYKGEFVLAQEQLDVLKLATTREISNDAIQLSVFITENSGLDSTTDALKDYSAIQLLLFQRKYDEALQAANALLKQYPHHELTDDVYWLQATILRQTGKPTEALEMLKKISTGYADDLLGDDALFTSAQIFDYDLKNTEKAMQLYQDFLIQYTNSVYVTEARKRFRILRGDKI
protein production: failed

MQWPPPWRRSPLVSATPPPGPTRGLLCPRRVSEAGDSSTEGARTGHSHYVTPAESAMEGRSQPLPSLRPASPTNAPAHGRGSDCTAKEPPLANVCRQNYGAAQDPVELAGRRSASHVTGSSLGKAEVACGRRWRWAELLADTSWSPAGRATEMKVKMLSRNPDNYVRETKLDLQRVPRNYDPALHPFEVPREYVRALNATKLERVFAKPFLASLDGHRDGVNCLAKHPEKLATVLSGACDGEVRIWNLTQRNCIRTIQAHEGFVRGICTRFCGTSFFTVGDDKTVKQWKMDGPGYGDEEEPLHTILGKTVYTGIDHHWKEAVFATCGQQVDIWDEQRTNPICSMTWGFDSISSVKFNPIETFLLGSCASDRNIVLYDMRQATPLKKVILDMRTNTICWNPMEAFIFTAANEDYNLYTFDMRALDTPVMVHMDHVSAVLDVDYSPTGKEFVSASFDKSIRIFPVDKSRSREVYHTKRMQHVICVKWTSDSKYIMCGSDEMNIRLWKANASEKLGVLTSREKAAKDYNQKLKEKFQHYPHIKRIARHRHLPKSIYSQIQEQRIMKEARRRKEVNRIKHSKPGSVPLVSEKKKHVVAVVK
protein production: failed

MMMTRSWAAGGSAVLLALLLGGTITSAHAQSADLVLCDRIAADPADPDKPADVKGVTEIAPGDVSTAIKYCRVASAGSRRAMYGLGRAYAAGGQTAEALAAYRKAADKGSSAAMVELGVAYATGVGLPKDDAKARQLLERAAAAGNPRGISNLAALGGGASSDPVKTRALLAKGAESNAEAQYQLGMMMADGIGGPKDDAGARALFEKAAGQGHPGALMQMGAFAQAGRGGPKDSDAAKAYYEKAAALGNADAKAALKRSDCPYVLKDKRGNMVTNLCF
protein production: failed

MAKLRVGIVFGGKSAEHEVSLQSAKNIVDAIDKTRFDVVLLGIDKAGQWHVNDAENYLQNADDPAHIALRPSAISLAQVPGKHQHQLINAQNGQPLPTVDVIFPIVHGTLGEDGSLQGMLRVANLPFVGSDVLSSAACMDKDVAKRLLRDAGLNIAPFITLTRTNRHAFSFAEVESRLGLPLFVKPANQGSSVGVSKVANEAQYQQAVALAFEFDHKVVVEQGIKGREIECAVLGNDNPQASTCGEIVLNSEFYAYDTKYIDDNGAQVVVPAQIPSEVNDKIRAIAIQAYQTLGCAGMARVDVFLTADNEVVINEINTLPGFTNISMYPKLWQASGLGYTDLISRLIELALERHTANNALKTTM
protein production: not failed

MKNDLFTEIIGQHTAKLLLTEAIERNQIAPAYLFSSEVEGVGKGKIALAFANAILSRGSRSAMAKHLPPPKGDAQGTASAGESKHLDILQIKPTYTENTSQQKSVPAIRVEQMREVIEFLSTSAVEGKQKVVIIYEADMLNPTAANKLLKTLEEPKTGTFILISSYPQKLLPTIKSRCQIIPFQRLTDEEVISVLKDQQIEATEKILAISSGSPGQAIANIKMLASISQEITKELEVPPDDILKALSLSNSISSWNHQTQLWLLTYLQYNWWQKLKSTKLLAKFTQARKQLLHHVTPRSVWDSLLLP
protein production: failed

MANNELQIAGSQGELRIRPYEHHAKYYETDQMGIIHHSNYVKWMEEARLDLMDQIGLNYRQMEDMEIISPVLSISVEYHSMVHFDDTVVIYTKLLKYNGIKMELEYVMKDKETGELRTTAKSSHCFLNKSGKPISLKRMYPELDTKFFEFKEA
protein production: failed

MIKILETESSLGWGGQENRTARLINHLDPTRFRVYVATPKDSELYKRRQEIRAEFFPVEMRKSYSLKAIWQLYKIIKKERIDIVSTHSGKDAWLGVIAARLAGVKAIRTRHLQTPISSPLSYNLHDKVVCVSDFVKEDLAKRGVQKGRLCTIHTGVDVSKYAPHREGILRRELGLREEEILVGIVAVLRGAKGHKLLLEAFAKLSSSTARLVIIGDGPQRENIALIVEQLNLQERVVMLGHREDVAKIMPDLDIFVLSSSMEALGTAILEASACGVAVLGSNVGGIPECVRENGQLFEAGDSDSLVKNLQALINDTSKRKERGAKGRVLVEEEFSVEAMVRKTEGLYREIITPQKILIVSNTALGDTILSTPLFRETRLALPKAHITALLNPVNAMLFETNPYLDKIELYGGRWRGFLGAWWKLWRRGFDVALLGHSNDPQITPLCLLLGISKIIKIPNHKNPWQRFHHNPPASPIEDQYAVLTRLLTLKYIGIESSNTRLELFLKEEWTTEAKEILRPFGQKKLIGIQMGASNRSRQWFVERWIELAKRIIERDEEVVIVFVGSKNELEEISLVAQALPQDRVFISAGRLSLGAAAALIGELGLLFTPDTGPLHIAVALRVKTISLFAVANPKNSLPDYDQSLHRYIKVDRCCEPCVGKRCAYQKCMEAIGVDEVYEEYKKLQE
protein production: failed

MSTKKPAAAYSEASIKVLKGLEPVKQRPGMYTRTENPLHIIQEVIDNASDEALGGFGKQITVTLHPDQSVSVEDDGRGIPFGLHPEEKVPVVEIVFTRLHAGGKFDKAKGGAYTFSGGLHGVGVSVTNALATRLDVTVWRDGKIAQLGFADGDVVKPLATQGAGRGEKKSGTRVTVWPNPKYFDSPNLPLGELQRLLRSKAVLLPGVEVVLVNEKTGERQSWKYEDGLRGYLLDEMNGSELLIPLFEGERFADSRSGDDTFAEGEGASWVVAWSEEGSLVRESYVNLIPTPAGGTHESGLRDGLYQAVKSFVELHNLQPKGVKLLAEDVFARVSFVLSAKVLDPQFQGQIKERLNSRDAVKLVSSFTRPALELWLNQHVEHGKKLAELVIKQAQARTRAGQKIEKKKSSGVAVLPGKLTDCETEDIARNELFLVEGDSAGGSAKMGRDKEYQAILPLRGKVLNTWETERDRLFANNEVHDISVAIGVDPHGPDDSVDVSNLRYGKICILSDADVDGAHIQVLLLTLFFKHFPQLIERGHVFVARPPLFRVDAPARGKKPAQKLYALDEGELEAILDKLRKDGVRESQWTISRFKGLGEMSAEQLWDTTMNPDTRRLMPVALGELDFEATVARMTMLMGKGEAAARRNWLEEKGNEVEADI
protein production: failed
